Reference: the supplement of paper PMC12764529
± gives the half width of the 95% confidence interval.

experiment: folding stability dG unfold from chymotrypsin proteolysis; higher = more stable
Procedure, shortened: (§1)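 Designed mini-proteins with no cysteine and under 80 residues were kept only if AlphaFold2 dimer inter-PAE was above 15. In a PA-tagged cDNA display construct, they were digested with trypsin and chymotrypsin and then sequenced. K50 was inferred by Bayesian fitting of counts, and unfolding free energy was derived per protease or combined against a sequence-predicted unfolded-state K50 and a shared folded-state K50.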

Going from “SAGGSAGGSMVFESTSVYTFPEQNTVVVTKTTTTVTKTPDGSSSVSTSTTTTVLTVPPPEPLVSAGGSAGGS [r12_277_JUSTAS]” to “SAGGMSVSFPVDSSEELKKLLPKDYLVEIVSTPPDGSKSVRVVRPEDLEIDLPEGEKYYFEIKFLPKESAGG [r13_461_TrMRF]”, the “folding stability dG unfold” value falls from 3.64 ± 0.13 kcal/mol to -0.138 ± 0.093 kcal/mol.

First: SAGGSAGGPSYTIQFPYPPGMPPWRLQKLLEEAGYPPPEIEYNPKNGSHWITFSPEVRDAFKELSAGGSAGG [r6_307_TrROS]
Second: SAGGSAGGSAGGMGPPPIETIVIEKPLSEEEYEALKKAYPDKKVTVSEIPGTPNKIATIESAGGSAGGSAGG [r17_254_JUSTAS]
The “folding stability dG unfold” value of the first is higher: 0.845 ± 0.17 kcal/mol for the first, -0.192 ± 0.098 kcal/mol for the second.

Going from “SAGGSAMFKSPSDKYFEPIAVIDLEKASPETLKALLEENPGKLLVIPKSTGKPRLIPAEELLELLGSAGGSA [r15_904_TrMRF]” to “SAGGSAGGSAKAVIFFEGASIEDVVEAVKARPEEEVLVVFPDGRVLLLTKDDVVVVVPAPFSAGGSAGGSAG [r3_269_TrMRF]”, the “folding stability dG unfold” value rises from -0.154 ± 0.41 kcal/mol to 1.22 ± 0.11 kcal/mol.

First: SAGAMQTVTLPTPDGRTVTLRHPGISVSVDPEKRTVTISVPSLGKVYTLTFAPDGTVAELSEEPIPELESAG [r5_342_JUSTAS]
Second: SAGGSAGGSAGGPPVLAESTFSFPDGVTVRLAFLPDGKAIAELTPPDGSKIEVEFDVDASAGGSAGGSAGGS [r10_1184_TrMRF]
The “folding stability dG unfold” value of the first is higher: 3.231 ± 0.025 kcal/mol for the first, 0.203 ± 0.14 kcal/mol for the second.

Going from “GPSPVSVSTSTSTSLSTVGNTPVLVTTTTTTTTTLSPDPTDPSVTTTTTTTTTTTTVYDPANGKPLSTTTSS [r1_406_JUSTAS]” to “SAGYWEFEIELPNGRKIEIEWQRMNGRYWFKIEVLDDNGKPVREVPIPFPNPEMPFEQMIKNAVKKILDSAG [r5_630_TrROS]”, the “folding stability dG unfold” value rises from 1.86 ± 0.059 kcal/mol to 3.898 ± 0.032 kcal/mol.

With “SANDKHKYEEEYPYRNPNDPGQPMPFKREREVPVQPPPVITIDADELAKELKEQGEIKIPPDGWIAIPFSAG [r14_582_TrROS]” the “folding stability dG unfold” value was 4.1 ± 0.2 kcal/mol.

experiment: folding stability dG unfold (combined trypsin and chymotrypsin); higher = more stable
Procedure, shortened: as §1

Going from “SAGGSAGGMVISLPNNYKIKLGITDAEFDEVKVYTGPNGPKKLVSGANIKLKIGISIYKSNDNSSAGGSAGG [r6_585_TrMRF]” to “SAGMEPVSIKITKIEKTPENKDYVIVTVTPPDGVPTEIKVPIEFYKSGKLKNATAEELVKLFPEYKLESAGG [r19_74_JUSTAS]”, the “folding stability dG unfold” value rises from 1.4 ± 0.17 kcal/mol to 2.28 ± 0.12 kcal/mol.

Going from “SNPNEPLTAEEIAKHIEEFMQEEHGIDKIKPEEFTVNPPDGYIKVEMEIEHKNPPGQKHKIDIWIPPDDLSA [r9_1002_TrROS]” to “SAGGSAGGSAANVTREPRFDPSTNLVRTLVRFPDGSVREEILEITKNPDGTLTYKRFERPPSAGGSAGGSAG [r3_474_JUSTAS]”, the “folding stability dG unfold” value rises from < -1 kcal/mol to 1.19 ± 0.14 kcal/mol.

Compared with “SAHTWEIWFPPGLTPEEIQEKLKEEFPGYEIDVDVERDPEPGWYRIEVTMKDPQQRRRVQKKIREILQESAG [r14_443_TrROS]”, “SAGGSAGGSAGGSIEIIVRTPEMAKQMAKRIQKILADQGNPPPLKIEIHVIPPDDLPPWSAGGSAGGSAGGS [r4_472_TrROS]” is lower in “folding stability dG unfold” value: 2.4 ± 0.14 kcal/mol for the first, 0.388 ± 0.15 kcal/mol for the second.

“SAGGSAGGMTLTLELTLENGKKVRIEVEVNENGSLKVKITYPNGKKVEIEVNMSLEELLKKLLSSAGGSAGG [r6_808_TrROS_Hall]” and “SAGGSAKMKKVKITLYAKVKSLEEAKEIAEEIKKSFPSIEKVEVKTEPLEDGSLLVKVDAIFYVPESAGGSA [r15_726_TrMRF]” are within error of each other in “folding stability dG unfold” value: 3.91 ± 0.29 kcal/mol for the first, 3.7 ± 0.16 kcal/mol for the second.

First: SAMLTILSVETHTLPNGEEIVTVTLKTPDLETLDALLAELGLTGTRDPDDPQVVTITTSREKVQEIKEKSAG [r14_777_JUSTAS]
Second: SAGGSAGGSDPDLDIPPAPLEEIYIPGTGRLLVLYEPTGLVAAYPPSGSFEIGVYDPETGKISSAGGSAGGS [r12_420_TrMRF]
The “folding stability dG unfold” value of the first is higher: 4.57 ± 0.3 kcal/mol for the first, -0.297 ± 0.12 kcal/mol for the second.

Compared with “SAGGSAGGKITITLPGAEIVSVEESEDGKTITITVRLENGELLKITLKRVNGKWYITKIELLKPSAGGSAGG [r6_718_TrROS_Hall]”, “SAGGSAKVKIEVIELPPGMTEEELRKLAEEKGLKVEKVDKENLLVKITAKSKEEAEKIKKELEEKLSAGGSA [r15_546_TrROS_Hall]” is lower in “folding stability dG unfold” value: 4.34 ± 0.068 kcal/mol for the first, 0.511 ± 0.27 kcal/mol for the second.

Going from “SAGGSAGGSKITSIEEKDGFVRITIEVDGKTETKTIPKENLPPNITFPPGAKVKIEKVSKEDLSAGGSAGGS [r12_1005_TrROS_Hall]” to “SAGGSPEVKIEIEVTERVTVFDENGKPVEEVLVVKAKITFPDGTTATITAFFYEGKWFITSIELEPSAGGSA [r2_158_TrROS_Hall]”, the “folding stability dG unfold” value rises from 1.32 ± 0.073 kcal/mol to 4.62 ± 0.27 kcal/mol.

Compared with “SAGGSAGGNLTLPPDNIKRIWHVGDGHWLIKMDDNVLMINPGNGKIQTVKKEDADKLPPGDPFFSAGGSAGG [r6_890_TrROS]”, “SAGGKVKVKLSPEMIEALKKAGIKEGQKEVTIEVKLKDGSVYRVTITYDKKTNKITIKVEKVEKLPPSAGGS [r16_497_TrROS_Hall]” is higher in “folding stability dG unfold” value: 0.0115 ± 0.15 kcal/mol for the first, 3.88 ± 0.32 kcal/mol for the second.

Compared with “SAGGSAGGSKTITVRVKITLPNGETIEVEAEITVRPDGSITITLPDGSTITLPPGAKVEIEPVSAGGSAGGS [r20_227_TrROS_Hall]”, “SAGGSASNLKVTYKITIGSTTITVTLPEGSEKELKKIPNAEVTPISEIEPAPPPILYFKFENNNLVSAGGSA [r15_443_JUSTAS]” is lower in “folding stability dG unfold” value: 2.85 ± 0.26 kcal/mol for the first, 1.09 ± 0.089 kcal/mol for the second.

Compared with “SAGGSAGGSKEKVIEIKIKVKTKEEAKKKAEELAKELEKKGYKIKKVEIKYDKETKEVTVRIESAGGSAGGS [r20_155_TrROS_Hall]”, “SAGGSAGGSAPWYIAIYMPGNGRKRTYPFKSADDIKEEIKEHLGPGMNPDNVEIKIIPPDDISAGGSAGGSA [r18_350_TrROS]” is lower in “folding stability dG unfold” value: 3.95 ± 0.12 kcal/mol for the first, -0.0945 ± 0.38 kcal/mol for the second.
